Data reported in publication PMC2120794.

Target: type I collagen (triple helix)
Test: SPR
Settings: scale: molecules of HSP47 per triple helix of type I collagen

B1: recombinant mouse HSP47 (natural protein)
chain: AEVKKPLEAAAPGTAEKLSSKATTLAERSTGLAFSLYQAMAKDQAVENILLSPLVVASSLGLVSLGGKATTASQAKAVLSAEKLRDEEVHTGLGELLRSLSNSTARNVTWKLGSRLYGPSSVSFADDFVRSSKQHYNCEHSKINFRDKRSALQSINEWASQTTDGKLPEVTKDVERTDGALLVNAMFFKPHWDEKFHHKMVDNRGFMVTRSYTVGVTMMHRTGLYNYYDDEKEKLQMVEMPLAHKLSSLIILMPHHVEPLERLEKLLTKEQLKAWMGKMQKKAVAISLPKGVVEVTHDLQKHLAGLGLTEAIDKNKADLSRMSGKKDLYLASVFHATAFEWDTEGNPFDQDIYGREELRSPKLFYADHPFIFLVRDNQSGSLLFIGRLVRPKGDKMRDEL
- stoichiometry N: > 7
